For 141 substances, amyloid nucleation score results are on record in the supplement of paper PMC12042874.

± gives the uncertainty stated by the source.

The series is described as follows: amyloid nucleation score (Sup35N fusion, yeast selection) (log enrichment); library NNK1; higher = more nucleation; inactive = no reads after selection. In short, it runs like this:
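The nucleation score is the DiMSum log enrichment of output over input reads, centred on the mode score of non-aggregating sequences. Only sequences with 100 or more input reads were scored, using Illumina sequencing of input and output plasmid inserts. Psi-negative yeast expressing Sup35N fused to peptides of 20 random codons were induced 24 hours with 100 μM copper sulfate and grown 7 days at 30°C on medium lacking adenine and uracil.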
NFRGFLVTDPLSSS showed an amyloid nucleation score of -0.842 ± 0.42.
With NFRNSLRSV, the amyloid nucleation score came out at 1.24 ± 0.59.
The value for NFRSFYKQF was -0.451 ± 1.4; that for NFYMGETDGACLCASMRDPQ was 2.62 ± 0.14; that for NGCQSIMR was 0.165 ± 0.62.
The value for NGFRTSTSCVILLPFCKGQK was -0.129 ± 0.57; that for NGGAPSGNSGFKYSCKGWFV was -0.452 ± 0.52; that for NGKWYLLVRGFLAWNKQRCP was -1.03 ± 2.7.
For the substance NGLQMDCWPLCWRGGGARNC, the amyloid nucleation score is 0.582 ± 0.38.
Substance NGRIQKLASNTCGLWEDLDT showed an amyloid nucleation score of 0.501 ± 0.54.
Under NGYFGAEDFLIVWIALRKKW stands 0.5 ± 0.9.
Under NHFLYLFVRYYTRLAEHVYA stands -0.08 ± 0.56.
NHLRGKCTWGRYCWSVVIRF displayed an amyloid nucleation score of 0.362 ± 0.83.
The value for NHMSGIDKGIMRLGEWLGEW was -1 ± 0.83; that for NHTGYTWMNVR was -0.099 ± 0.26; that for NHVSHWMLSSGKASRYHTRR was 0.142 ± 0.66.
NIGMVRFFLGAN had an amyloid nucleation score of -0.71 ± 0.61.
Regarding NIITIETGGRKVGTFMMYSI, the amyloid nucleation score result is “inactive”.
Under NILFCWMGTMYPLLLSAYGR stands -0.793 ± 0.48; under NILVAIL, -1.45 ± 1.4; under NIPQLVVFKWMLSTC, -0.047 ± 1.1.
The value for NIQSDRVHIFNELVRFSRWK was 0.829 ± 0.97; that for NISVHDNNLFHVWNLMVDSG was 5.83 ± 0.061; that for NIYNVRLIVSH was -0.018 ± 0.54.
Under NKAFGMIV stands -0.103 ± 0.79.
NKGKIESMCSSAH registered an amyloid nucleation score of 4.7 ± 0.099.
For NKLEYPHNNACATCC, the amyloid nucleation score came out at 1.09 ± 0.84.
For the substance NKNTS, the amyloid nucleation score is -0.45 ± 0.54.
The substance NKQEQHFF had an amyloid nucleation score of 0.052 ± 0.4.
Consider NKSVFVLFVWINSENNVYCE, for which the amyloid nucleation score is 0.443 ± 0.62.
With NLACGFKSWDFKRMRD, the amyloid nucleation score was 0.685 ± 0.51.
Under NLEAIRQMQEKIMRRTWLLY stands 3.03 ± 0.13; under NLEHKCVFVLHMKTLIISQP, 0.664 ± 1.2.
The value for NLERKEVLSREGCICANFTR was -0.345 ± 0.45; that for NLFLIDMNVWRLVVGGRQDW was 4.63 ± 0.073; that for NLFNYLSFD was -0.675 ± 0.49.
Substance NLGIWPLYPYFFWLGQIWGD came in with an amyloid nucleation score of 0.022 ± 0.77.
The value for NLGTSYAWHDNGLFCIHCVS was 1.34 ± 0.84; that for NLICNLVDNQFPVWQLLRIW was 2.3 ± 0.17; that for NLKIQCSS was 0.004 ± 0.39.
Substance NLLGDSLWEPLNLVDGSTLW gave an amyloid nucleation score of 0.235 ± 0.3.
With NLMNWRLYDLTGLAAWDQYS, the amyloid nucleation score was -0.841 ± 0.98.
The value for NLRFRRYTLVSGMQGNKIWH was -0.234 ± 0.48.
The value for NLSCAE was -0.288 ± 0.71.
Under NLTCSLMVCRWFPIPVL stands 0.171 ± 0.38; under NLVALNLSNTFPDDV, 0.04 ± 0.82.
Regarding NLVFW, the amyloid nucleation score amounted to 0.562 ± 0.69.
The substance NLVVTTWARDIADYISAS gave an amyloid nucleation score of -0.01 ± 0.4.
NLVYTAIAPPFASFRK displayed an amyloid nucleation score of 0.005 ± 0.65.
As for NLWSGFLRFKFSCGRIDGIL, the amyloid nucleation score was -0.622 ± 0.41.
The value for NMDGSVSCVCNILSFDYGGS was 8.289 ± 0.077; that for NMDSNAIGGGGNGGVRLQSR was -0.76 ± 0.55.
The value for NMGSFELWYYGLKASVGFAN was 0.513 ± 0.4.
With NMKRQRAHPMFS, the amyloid nucleation score was -0.707 ± 0.45.
The value for NMNNGDMSSVVVVIRVFCLI was 5.38 ± 0.093.
The value for NMRTNQDKSCGCCQLPVQAG was -0.119 ± 1.2; that for NMTAYSRCSSRTWYTVVFSG was 1.71 ± 0.15.
Consider NMVLRPHVMYAWNEPELGNC, for which the amyloid nucleation score was -0.22 ± 0.39.
Under NNANCMCSNTCHVFWANHAR stands 6.193 ± 0.061; under NNCLWLLGPRFPCVIMLVPA, 2.18 ± 0.14; under NNEPGLGEK, -0.598 ± 0.92.
The value for NNFFITVHSLLIRSSTHMR was 0.015 ± 0.37; that for NNGRLYVTIRLMDINLVVHT was 0.616 ± 0.43.
Turning to NNKCWNIVRLVHRSLTLTRH, the amyloid nucleation score result is “inactive”.
Under NNLLLSYSSFYMLMFQ stands 3.42 ± 0.076.
NNLRLKGKKRSYRCSVIDLT yielded an amyloid nucleation score of -0.256 ± 0.39.
The value for NNMLAWWVSLTSSQT was 0.512 ± 0.39.
Substance NNNAMQVDVILMRFWVKVAV gave an amyloid nucleation score of 0.492 ± 0.89.
The substance NNPLLIPAYPTRNQKVKLIK yielded an amyloid nucleation score of 0.108 ± 0.39.
NNTFVIVKFEAKDTFVEGVR came in with an amyloid nucleation score of 1.57 ± 0.3.
NPGPYRARHSSDSWRGNYNE yielded an amyloid nucleation score of -0.366 ± 0.58.
The value for NQILRLMCWTFYFRESSKSY was “inactive”; that for NQRYHYLAAQWVDSWLVGCS was -0.256 ± 0.6.
Under NQYLPS stands -0.126 ± 1.2; under NQYMIQGKVSRSNIMCLGMR, -0.067 ± 0.21; under NRANSVVGQACRKSVIRNRF, -0.144 ± 0.32.
NRISALWSTMLWFAY: the amyloid nucleation score was -0.008 ± 0.27.
The value for NRIVADSESYCTSCLAVCAH was 0.177 ± 0.3.
For NRLNGNLPLNHR, the amyloid nucleation score was determined as 0.014 ± 0.51.
In the case of NRLWSIRK, the amyloid nucleation score is -0.425 ± 0.34.
Under NRMLSSKQAPSQNFQ stands 0.814 ± 0.46; under NRPHFKGNQCPQDIS, -0.217 ± 0.22; under NRRLIIVNFVQSKDTCEWRG, 2.77 ± 0.21.
Regarding NRVSFYATTNFSISRFGSWG, the amyloid nucleation score entry is “inactive”.
Take NRYFRMCFRLWFDPTWSVRA: the amyloid nucleation score was found to be 0.681 ± 0.85.
For NRYSYYFLLI, the amyloid nucleation score stood at 3.16 ± 0.1.
NSAILITNIECLYNIITLFT returned an amyloid nucleation score of 6.389 ± 0.048.
Substance NSAKLIARLWMMWDLATSDW yielded an amyloid nucleation score of -0.89 ± 0.46.
As for NSCICLTRD, the amyloid nucleation score was -1.27 ± 1.7.
For the substance NSDSIGIRVFDV, the amyloid nucleation score was 0.242 ± 0.99.
Consider NSILFNGTQLD, for which the amyloid nucleation score was -0.976 ± 0.35.
The value for NSLCRLSGCCGVLRDLPLVM was -0.232 ± 0.33; that for NSPRPSLLCCPCGKAYLHFR was -0.282 ± 1.2; that for NSREYDRATGNGGTEGKSVT was -0.45 ± 1.1.
The substance NSSTVDFSYTNYVRVLLLIA gave an amyloid nucleation score of -0.745 ± 0.8.
The substance NSVIFELISSCVNDSNVAGD had an amyloid nucleation score of 1.45 ± 0.63.
The value for NSVYGTIDYGPHCFVNEGNF was “inactive”.
Under NSYQSSFSEFAASICFDTAE stands -2.5 ± 2.4; under NTADTFMNLAILSC, 0.148 ± 0.35.
Substance NTALMWVMMIVIWSVVSFTS gave an amyloid nucleation score of -0.8 ± 1.4.
In the case of NTANIIDTGGDSTPLISRSC, the amyloid nucleation score is -0.958 ± 0.96.
Substance NTHKLSGLI showed an amyloid nucleation score of 0.149 ± 0.41.
Under NTNLVWR stands 0.267 ± 0.36; under NTQFHCDDFQLVHDIQ, 0.214 ± 0.38; under NTSEIPCCVIQEWFYCTFYL, 7.503 ± 0.044.
The value for NTSSLVMVSCDTPRYTNTEV was -1.04 ± 0.72; that for NTSWGYFR was -0.426 ± 0.52.
The value for NTVQNSMG was “inactive”; that for NVAGMSPQSWVVDTSSR was 1.34 ± 0.4.
Consider NVDRSCWRRECPDCWVMLNM, for which the amyloid nucleation score stood at 0.664 ± 0.49.
The value for NVFILMCITKRFCNWLNISS was -0.773 ± 1.5.
The value for NVGLGRWSFCGSMSVK was -0.688 ± 0.58.
NVGQPRNVVDSIQ returned an amyloid nucleation score of 0.67 ± 0.23.
Take NVKLFFNIFVGKSKIHTTPW: the amyloid nucleation score is 6.308 ± 0.058.
Under NVMNVIGGENWVSGFDCMGR stands “inactive”; under NVRLHVVYVSPSYACFIWSW, 0.343 ± 1.4; under NVSEVCKYYPLFRSD, -0.007 ± 0.23.
NVSGNEMISGAFGIDEIDGS came in with an amyloid nucleation score of 0.189 ± 0.9.
Under NVTSAR stands 0.185 ± 1.1; under NVYLMKLDWTIKMWWA, 0.638 ± 0.69; under NWGENWRLGMSSIREESGAE, -0.735 ± 2.1.
NWICKRVIYEYFSTQIYSSG displayed an amyloid nucleation score of -0.133 ± 0.55.
Substance NWINNRG displayed an amyloid nucleation score of 1.03 ± 0.32.
Under NWLNWLTHLFS stands 0.407 ± 0.49; under NWLTTQNI, -0.371 ± 0.42; under NWMTLRWVLGGLSNGFDGSH, 4.41 ± 0.073.
Under NWSRPSSNLGGGPSSAVREG stands 0.764 ± 0.52.
NYAYCSLVVEDSVK showed an amyloid nucleation score of 8.284 ± 0.063.
Substance NYGFAIPFA showed an amyloid nucleation score of 0.323 ± 0.31.
For NYIEPQG, the amyloid nucleation score was 0.296 ± 0.97.
The value for NYLHFSRRLALWRC was “inactive”; that for NYSSINLWPCVMLNFRYL was “inactive”.
In turn, NYSVFVTSI returned an amyloid nucleation score of 0.365 ± 0.5.
In turn, NYVYPRVLYSFQVLLYPSKD registered an amyloid nucleation score of 0.704 ± 0.49.
Substance PAATNAWGWRVPDPGSMIPS registered an amyloid nucleation score of -0.3 ± 0.42.
As to PALKYFEAVVH, the amyloid nucleation score result was “inactive”.
Under PAMAWSSSMSFRGTILLDFA stands -1.44 ± 2.7; under PAQEA, 0.126 ± 0.45; under PARSWNLLLSSYYAVFGCFY, -0.327 ± 0.74.
For PCRGL, the amyloid nucleation score is -0.628 ± 2.1.
Under PCSSFVNCKIMFLTLMDVVW stands 7.739 ± 0.056.
